Laboratory results as given in patent US20240000914A1.

Target: adeno-associated virus 2 (AAV2) vector capsid (AAV2-nLuc) (adeno-associated virus 2) (UniProt P03135)
Test: cell-based or functional assay

Chain of UniProt P03135 (P03135 whole entry, the tested form may be a part): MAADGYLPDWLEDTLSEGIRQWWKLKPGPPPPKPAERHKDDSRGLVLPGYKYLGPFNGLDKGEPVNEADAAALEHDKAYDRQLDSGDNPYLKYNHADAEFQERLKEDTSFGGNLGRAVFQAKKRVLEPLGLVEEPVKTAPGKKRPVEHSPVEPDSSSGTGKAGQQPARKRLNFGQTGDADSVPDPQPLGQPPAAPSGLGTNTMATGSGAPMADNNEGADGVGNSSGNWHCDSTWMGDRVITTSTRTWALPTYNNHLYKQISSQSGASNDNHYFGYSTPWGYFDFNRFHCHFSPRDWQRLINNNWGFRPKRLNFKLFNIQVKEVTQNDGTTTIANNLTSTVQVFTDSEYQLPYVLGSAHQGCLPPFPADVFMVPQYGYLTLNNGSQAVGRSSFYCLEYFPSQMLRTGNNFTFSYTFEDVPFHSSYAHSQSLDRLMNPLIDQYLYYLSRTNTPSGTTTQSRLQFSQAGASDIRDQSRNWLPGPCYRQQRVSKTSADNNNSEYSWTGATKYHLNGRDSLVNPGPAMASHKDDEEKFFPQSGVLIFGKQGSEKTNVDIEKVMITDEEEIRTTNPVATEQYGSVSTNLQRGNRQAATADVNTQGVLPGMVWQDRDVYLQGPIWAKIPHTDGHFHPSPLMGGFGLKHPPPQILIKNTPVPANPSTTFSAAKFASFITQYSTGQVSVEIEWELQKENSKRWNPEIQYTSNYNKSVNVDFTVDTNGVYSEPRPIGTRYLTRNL

Question: With “human intravenous immunoglobulin (IVIG) (antibody)” as the substance, how does the 50% geometric mean neutralizing reciprocal titer (50% GMT) (50% GMT (reciprocal titer)) read?
Answer: 1280

Question: And the neutralization of AAV2-nLuc transduction (reciprocal dilution)?
Answer: 1250
